According to patent US20200385487A1 (PURDUE PHARMA L P, published 2020):
Changes are numbered by the printed parent chain.

B1: chimeric antibody B278-LC0HC0 (antibody, V domains shown)
VH: EVQLQQSGAELMKPGASVKISCKATGYTFSSYWIEWVKQRPGHGLEWIGEILPGSASTKYNEKFKGKATFTADTSSNTAYMQLSSLTSEDSAVYYCARDYYYGSSYGFAYWGQGTLVTVSS
VL: QAVVTQESALTTSPGETVTLTCRSSTGAVTTSNYANWVQEKPDHLFTGLIGGTNNRGPGVPARFSGSLIGDKAALTITGAQTEDEAVYFCALWYSNHWVFGGGTKLTVLG
notes: also called Ab LC0HC0 (chimeric B278); chimeric B278 control antibody
B2: humanized tissue factor antibody B278-LC7HC6 variant (antibody, human IgG1, lambda, V domains shown)
VH: B1 VH with L11V, T25S, R40A, H43Q, K67R, A68V, S76T, Q82E, T87R, S91T
VL: QAVVTQEPSLTVSPGGTVTLTCRSSTGAVTTSNYANWVQQKPGQLPKGLISGTNNRGPWTTARFSGSILGDKAVLTLWGAHTEDEAVYYCALWYSNHWVFGGGTKLTVLG
notes: Full-length humanized antibody; Expressed transiently in CHO cells; also called Ab LC7HC6; PS-F09-2016-012
B3: LC7HC5 (antibody, V domains shown)
VH: QVQLQESGAEVKKPGASVKVSCKASGYTFSSYWIEWVRQAPGQGLEWMGEILPGSASTKYNEKFKGRVTMTADTSTNTVYMELSSLRSEDTAVYYCARDYYYGSSYGFAYWGQGTLVTVSS
VL: B2 VL
notes: Humanized B278 variant, expressed transiently in CHO cells; also called B278-LC7HC5; B278-LC7HC5 variant
B4: LC8HC5 (antibody, V domains shown)
VH: B3 VH
VL: QSALIQPPSVSGSPGQSVTISCRSSTGAVTTSNYANWVQQHPGTVPKPMIYGTNNRGPGVPDRFSGSKSGNTASMTISGLQAEDEADYFCALWYSNHWVFGGGTKLTVLG
notes: Humanized B278 variant, expressed transiently in CHO cells; also called B278-LC8HC5; B278-LC8HC5 variant
B5: LC8HC6 (antibody, V domains shown)
VH: B3 VH with Q1E, E6Q, K12M, V20I, R38K, M48I, M70F, V79A
VL: B4 VL
notes: Humanized B278 variant, expressed transiently in CHO cells; also called B278-LC8HC6; B278-LC8HC6 variant
B6: LC7HC4 (antibody, V domains shown)
VH: B3 VH with A72R, N77S
VL: B2 VL
notes: Humanized B278 variant, expressed transiently in CHO cells; also called B278-LC7HC4; B278-LC7HC4 variant
B7: LC8HC4 (antibody, V domains shown)
VH: B3 VH with A72R, N77S
VL: B4 VL
notes: Humanized B278 variant, expressed transiently in CHO cells; also called B278-LC8HC4; B278-LC8HC4 variant

Columns and labels:
[1] = biological target: T1, recombinant soluble human tissue factor (hTF) (human, UniProt P13726 33-251); assay: SPR (Biacore X), soluble hTF immobilized on CM5 chip, antibody injected; global fit Langmuir 1:1
T1 construct: also called soluble hTF
Method: Binding properties of anti-hTF MAbs were evaluated using a Biacore X (Biacore Inc., Uppsala, Sweden). Briefly, a CM5 Biacore biosensor chip was docked into the instrument and activated with 55 μL of 1:1 NHS/EDC reagent (Biacore Inc.) at room temperature. The recombinant soluble hTF and BSA (10 μg/mL in 0.05 M acetate buffer, pH 4.5) were immobilized on the activated chip in flow cells 1 and 2, respectively. Immobilization was carried out at a flow rate of 5 μL/min until a resonance response of 1000-2000 RU was achieved. The chip was then blocked by injection of 55 μL of ethanolamine-HCl, pH 8.5, followed by five washes with 50 mM NaOH, 1 M NaCl.
To measure the binding of anti-hTF MAbs to the soluble hTF immobilized to the chip, 30 μL of anti-hTF MAbs at varying concentrations in Biacore running buffer (HBS-EP, Biacore Inc.) were injected over the sensor surface at a flow rate of 5 μL/min. Following completion of the injection phase, dissociation was monitored in BIAcore running buffer at the same flow rate for 360 sec. The surface was regenerated between injections using 30 μL of 50 mM NaOH-1 M NaCl. Individual sensorgrams were analyzed using […] software. Results for the Biacore/SPR binding analyses are shown in FIGS. 11A and 11B and Table 7.

[2] = biological target: T2, Recombinant Human Coagulation Factor III (tissue factor), R&D Systems (human, UniProt P13726 33-251); assay: ELISA: 100 ng/well Recombinant Human Coagulation Factor III coated on plate, antibody titrated 1000 to 0.97 ng/ml, goat anti-human Fc-HRP, TMB, OD at 450 nm
T2 construct: Bought reagent
Method: The binding of humanized variants of TF antibody B278, including B278-LC7HC4, LC7HC5, LC7HC6, LC8HC4, LC8HC5, and LC8HC6 variants, to recombinant human coagulation factor III (tissue factor) was assessed by ELISA analysis. The chimeric antibody B278-LC0HC0 was used as a control. In brief, 100 ng/well of Recombinant Human Coagulation Factor III (R&D Systems, UK) was immobilized onto 96 well Maxisorp plates in coating buffer (0.5 mM NaHCO₃ brought to pH 9.5 by the addition of 0.5 mM Na₂CO₃) overnight at 4° C. Coating buffer was removed and the plates were washed once in PBS Tween (PBS-T) (0.05% (v/v) Tween 20). 200 μl per well of 3.0% (w/v) semi skim milk in PBS was added and the plates were agitated for 2 hours at room temperature. Plates were washed three times with PBS-T.
Purified humanized variants of the TF antibody B278 (LC7HC4; LC7HC5; LC7HC6; LC8HC4; LC8HC5; LC8HC6) were serially diluted from 1,000 ng/ml to 0.97 ng/ml in incubation buffer (PBS, 1% (w/v) BSA), and 100 μl added per well.
Following agitation for two hours at room temperature, the plate was washed three times with PBS-T. 100 μl/well of goat anti-human HRP (Fc specific) (Sigma, UK) (1:60,000 PBS) was added and plates incubated for one hour with agitation at room temperature. The plates were washed three times with PBS-T and once in PBS. 100 μl/well of 3,3′,5,5′-Tetramethylbenzidine (TMB) substrate solution was added and incubated at 37° C. for 10 minutes. 50 μl of 1M HCl were added per well and the plates immediately read at 450 nm on a Tecan Sunrise plate reader.

Binder	EC50 (read off the curve) [2]	binding result [2]	other results
B1	~0.04 mg/L	–	Kd [1]: 0.0249 µM; koff [1]: 0.0011 s⁻¹; kon [1]: 43000 M⁻¹ s⁻¹
B2	–	–	Kd [1]: 0.0253 µM; koff [1]: 0.0007 s⁻¹; kon [1]: 28000 M⁻¹ s⁻¹
B3	~0.05 mg/L	–	–
B4	–	no binding (tested: 1000 ng/ml)	–
B5	–	no binding (tested: 1000 ng/ml)	–
B6	~0.06 mg/L	–	–
B7	–	no binding (tested: 1000 ng/ml)	–
